# From patent US20040005324A1 (INTRACEL RESOURCES, published 2004)
# Tests used:
# BSA = BSA (UniProt P02769 25-607); test: ELISA with purified Fab
# [1] = molecular target: RSV F glycoprotein of subgroup A isolate SW/669/′59 (respiratory syncytial virus, subgroup A); test: cell-based or functional assay
# [2] = molecular target: RSV F glycoprotein of subgroup A isolate Wash/11657/′60 (respiratory syncytial virus, subgroup A); test: cell-based or functional assay
# [3] = molecular target: RSV F glycoprotein of subgroup A isolate Wash/Bern/′65 (respiratory syncytial virus, subgroup A); test: cell-based or functional assay
# [4] = molecular target: RSV F glycoprotein of subgroup A isolate SL/863/′84 (respiratory syncytial virus, subgroup A); test: cell-based or functional assay
# [5] = molecular target: RSV F glycoprotein of subgroup A isolate SL/10849/′84 (respiratory syncytial virus, subgroup A); test: cell-based or functional assay
# [6] = molecular target: RSV F glycoprotein of subgroup A isolate SL/10865/′84 (respiratory syncytial virus, subgroup A); test: cell-based or functional assay
# [7] = molecular target: RSV F glycoprotein of subgroup A isolate OK/9970/′85 (respiratory syncytial virus, subgroup A); test: cell-based or functional assay
# [8] = molecular target: RSV F glycoprotein of subgroup A isolate Bir/6190/′89 (respiratory syncytial virus, subgroup A); test: cell-based or functional assay
# [9] = molecular target: RSV F glycoprotein of subgroup A isolate New/RSS-2/′76 (respiratory syncytial virus, subgroup A, UniProt P11209 26-574); test: cell-based or functional assay
# [10] = molecular target: RSV F glycoprotein of subgroup A isolate Bir/1734/′89 (respiratory syncytial virus, subgroup A); test: cell-based or functional assay
# [11] = molecular target: RSV F glycoprotein of subgroup B isolate WV/474R/′90 (respiratory syncytial virus, subgroup B); test: cell-based or functional assay
# [12] = molecular target: RSV F glycoprotein of subgroup B isolate WV/1293/′75 (respiratory syncytial virus, subgroup B); test: cell-based or functional assay
# [13] = molecular target: RSV F glycoprotein of subgroup B isolate WV/4843/′80 (respiratory syncytial virus, subgroup B); test: cell-based or functional assay
# [14] = molecular target: RSV F glycoprotein of subgroup B isolate Wash/18537/′62 (respiratory syncytial virus, subgroup B, UniProt P13843 26-574); test: cell-based or functional assay
# [15] = molecular target: RSV F glycoprotein of subgroup B isolate WV/14617/′85 (respiratory syncytial virus, subgroup B); test: cell-based or functional assay
# [16] = molecular target: RSV F glycoprotein of subgroup B isolate WV/17154/′85 (respiratory syncytial virus, subgroup B); test: cell-based or functional assay
# [17] = molecular target: RSV F glycoprotein of subgroup B isolate WV/20323/′87 (respiratory syncytial virus, subgroup B); test: cell-based or functional assay
# [18] = molecular target: RSV F glycoprotein of subgroup B isolate WV/285R/′90 (respiratory syncytial virus, subgroup B); test: cell-based or functional assay
# [19] = molecular target: RSV F glycoprotein of subgroup B isolate WV/401R/′90 (respiratory syncytial virus, subgroup B); test: cell-based or functional assay
# [20] = molecular target: RSV F glycoprotein of subgroup B isolate WV/2B/′87 (respiratory syncytial virus, subgroup B); test: cell-based or functional assay
# [21] = molecular target: RSV F glycoprotein of wild type RSV strain A2 (respiratory syncytial virus strain A2, UniProt P03420 26-574); test: cell-based or functional assay
# [22] = molecular target: RSV F glycoprotein of MARM v1237 (strain A2 escape mutant, substitution at aa 276) (respiratory syncytial virus strain A2, UniProt P03420 26-574); test: cell-based or functional assay
# [23] = molecular target: RSV F glycoprotein of MARM v1214 (strain A2 escape mutant, substitution at aa 276) (respiratory syncytial virus strain A2, UniProt P03420 26-574); test: cell-based or functional assay
# [24] = molecular target: RSV F glycoprotein of MARM v1129 (strain A2 escape mutant, substitution at aa 275) (respiratory syncytial virus strain A2, UniProt P03420 26-574); test: cell-based or functional assay
# [25] = molecular target: RSV F glycoprotein of MARM vN151 (strain A2 escape mutant, substitution at aa 272) (respiratory syncytial virus strain A2, UniProt P03420 26-574); test: cell-based or functional assay
# [26] = molecular target: RSV F glycoprotein of MARM v1200 (strain A2 escape mutant, substitution at aa 272) (respiratory syncytial virus strain A2, UniProt P03420 26-574); test: cell-based or functional assay
# [27] = molecular target: RSV F glycoprotein of MARM v1153 (strain A2 escape mutant, substitution at aa 262) (respiratory syncytial virus strain A2, UniProt P03420 26-574); test: cell-based or functional assay
# [28] = molecular target: RSV F glycoprotein of MARM v324 (strain A2 escape mutant, arginine to serine at residue 429 of the F1 subunit) (respiratory syncytial virus strain A2, UniProt P03420 26-574, limits assumed); test: cell-based or functional assay
# Chain of BSA (P02769 25-607 limits assumed): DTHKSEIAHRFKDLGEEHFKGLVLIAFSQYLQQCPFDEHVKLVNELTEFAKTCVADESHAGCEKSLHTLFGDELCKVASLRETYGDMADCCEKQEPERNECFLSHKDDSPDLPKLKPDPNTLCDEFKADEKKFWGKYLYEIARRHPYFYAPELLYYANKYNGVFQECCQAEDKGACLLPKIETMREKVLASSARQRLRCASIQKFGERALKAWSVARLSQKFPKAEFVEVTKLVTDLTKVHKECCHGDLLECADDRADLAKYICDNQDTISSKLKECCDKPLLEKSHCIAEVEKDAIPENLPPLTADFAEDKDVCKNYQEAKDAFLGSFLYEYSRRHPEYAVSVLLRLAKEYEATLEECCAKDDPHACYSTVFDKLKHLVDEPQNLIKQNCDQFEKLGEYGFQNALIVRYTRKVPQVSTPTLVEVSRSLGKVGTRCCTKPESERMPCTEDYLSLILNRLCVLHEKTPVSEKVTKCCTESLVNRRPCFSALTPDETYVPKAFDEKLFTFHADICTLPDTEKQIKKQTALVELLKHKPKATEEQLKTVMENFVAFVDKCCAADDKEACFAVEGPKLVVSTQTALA
binder,measurement,setting,value
"human monoclonal Fab RSVF2-5 (Fab, V domains shown, CH1 and CL are therefore probably not in these entries; also called RSV Fab F2-5) VH: LEESGGDLVQPGRSLRLSCSTSGFSFGDYPVNWFRQAPGKGLEWLGIVRSRLYGGTLQYAASVEGRFTISRDDSKSIAYLHMNSLKSEDTAVYYCGVPVANIDYWGQGTLVTVSS VL: LTQPHSVSESLGKTVTISCTRAGGRIASNYVQWYQQRPGSSPTTVIYEDNQRPFGVPDRFSGSIDTSSNSASLTISGLKTEDEADYYCQSYDSENPWVFGGGTKLTVLG",binding result,BSA,no binding
same,"Specific neutralization activity (µg/ml): purified Fab for 60% plaque reduction, Vero cells",[1],3 µg/mL
same,"Specific neutralization activity (µg/ml): purified Fab for 60% plaque reduction, Vero cells",[2],1.6 µg/mL
same,"Specific neutralization activity (µg/ml): purified Fab for 60% plaque reduction, Vero cells",[3],0.6 µg/mL
same,"Specific neutralization activity (µg/ml): purified Fab for 60% plaque reduction, Vero cells",[4],0.2 µg/mL
same,"Specific neutralization activity (µg/ml): purified Fab for 60% plaque reduction, Vero cells",[5],0.9 µg/mL
same,"Specific neutralization activity (µg/ml): purified Fab for 60% plaque reduction, Vero cells",[6],0.4 µg/mL
same,"Specific neutralization activity (µg/ml): purified Fab for 60% plaque reduction, Vero cells",[7],1.4 µg/mL
same,"Specific neutralization activity (µg/ml): purified Fab for 60% plaque reduction, Vero cells",[8],2.4 µg/mL
same,"Specific neutralization activity (µg/ml): purified Fab for 60% plaque reduction, Vero cells",[9],1.9 µg/mL
same,"Specific neutralization activity (µg/ml): purified Fab for 60% plaque reduction, Vero cells",[10],1.1 µg/mL
same,"Specific neutralization activity (µg/ml): purified Fab for 60% plaque reduction, Vero cells",[11],0.9 µg/mL
same,"Specific neutralization activity (µg/ml): purified Fab for 60% plaque reduction, Vero cells",[12],1 µg/mL
same,"Specific neutralization activity (µg/ml): purified Fab for 60% plaque reduction, Vero cells",[13],0.5 µg/mL
same,"Specific neutralization activity (µg/ml): purified Fab for 60% plaque reduction, Vero cells",[14],0.5 µg/mL
same,"Specific neutralization activity (µg/ml): purified Fab for 60% plaque reduction, Vero cells",[15],2.6 µg/mL
same,"Specific neutralization activity (µg/ml): purified Fab for 60% plaque reduction, Vero cells",[16],2.1 µg/mL
same,"Specific neutralization activity (µg/ml): purified Fab for 60% plaque reduction, Vero cells",[17],0.8 µg/mL
same,"Specific neutralization activity (µg/ml): purified Fab for 60% plaque reduction, Vero cells",[18],0.6 µg/mL
same,"Specific neutralization activity (µg/ml): purified Fab for 60% plaque reduction, Vero cells",[19],0.7 µg/mL
same,"Specific neutralization activity (µg/ml): purified Fab for 60% plaque reduction, Vero cells",[20],0.3 µg/mL
same,Dose for 60% plaque reduction,[21],0.1 µg/mL
same,Dose for 60% plaque reduction,[22],< 0.3 µg/mL
same,Dose for 60% plaque reduction,[23],0.1 µg/mL
same,Dose for 60% plaque reduction,[24],0.5 µg/mL
same,Dose for 60% plaque reduction,[25],0.4 µg/mL
same,Dose for 60% plaque reduction,[26],0.3 µg/mL
same,Dose for 60% plaque reduction,[27],0.9 µg/mL
same,Dose for 60% plaque reduction,[28],> 18 µg/mL
